From paper PMC5039005

Experiments:
Samp1-YFP (human) = Samp1-YFP (human) (UniProt Q5SNT2); test: cross-linking + co-IP
[1] = target: Str-Ct.Samp1(1–180) (Chaetomium thermophilum); test: pull-down

Row | percent of total RanGTP bound in live cells (Samp1-YFP (human)) | Substance | fold binding, RanGTP against RanGDP [1] | percent of RanGTP pulled down at a 1:1 molar ratio [1]
1 | 1% | Ran (endogenous in tsBN2 and BHK-21 cells) (from UniProt A0A8C2MF66 1-216) (natural protein) | – | –
2 | – | His6-Ran (from UniProt P62826 1-216) (natural protein) | 1.8 fold | 40%
